Measurements from the supplement of paper PMC9170038.

Test system: MS2 coat protein
Assay: apparent KD of MS2 coat protein; designed switch direction (-1 OFF switch, 1 ON switch): -1; higher = weaker reporter binding
How it was run: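 Stalled E. coli RNA polymerase transcribed designed RNA switches on Illumina chips, which were then titrated with SNAP-549-labelled MS2 coat protein, doubling from 0.7 or 1.5 nM to 3 µM. Steps lasted from 0.8–1.5 h at the lowest concentration to 10–20 min at the highest. The apparent KD is each design's median over clusters of curve-fitted normalised fluorescence.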

[1] = input ligand: microRNA oligo, concentration not stated
[2] = Eterna round: R95, input ligand: FMN 200 uM
[3] = Eterna round: R95, input ligand: microRNA oligo, concentration not stated
[4] = Eterna round: R95, input ligand: none

Sequence | apparent KD of MS2 coat protein (input ligand: FMN 200 uM) | apparent KD of MS2 coat protein (input ligand: none) | apparent KD of MS2 coat protein [1] | apparent KD of MS2 coat protein [2] | apparent KD of MS2 coat protein [3] | apparent KD of MS2 coat protein [4]
AAUUUUUAUGUAAGGAUAUGGGUUUGGAAACGGGCUUAGAAGGUACAUGAGGAUCACCCAUGUAUAAUGUGCGU [-19.9, -19.7 kcal, 30% A] (Eterna round: R97, puzzle: Brourd's mod of Exclusion 4) | 0.019 µM | 0.0183 µM | – | – | – | –
ACAAAUCAUGUAGGAUAUGCGUGGCGAAGCUAUGCAGAAGGACAUGAGGAUCACCCAUGUGCUUCCGUCUGCGUACAGACGGUA [Mat - Exclusion NG 1 - Mod of JL - D16] (Eterna round: R96, puzzle: Exclusion NG 1) | 0.0753 µM | 0.0915 µM | 0.0646 µM | – | – | –
ACAAGCAUUUAUAUUUUAAAAUUUUAUCGUCUUAUAAUUACAUGAGGAUCACCCAUGUAUAAAGGGUGAAUAAUAAU [JR_Sensorv2_tov2_Sub550] (Eterna round: R96, puzzle: Sensor v2, turn-off variant 2) | 0.0939 µM | 0.0918 µM | 0.203 µM | – | – | –
ACAAGCUAUAUGCUCGGUUACAUGAGGAUCACCCAUGUACUCAUGUUCUUAUGUACUGACACGAAAGUGUUAGUAAU [AK-miRNA-r3-1] (Eterna round: R97, puzzle: Sensor, turn-off variant 1) | 0.11 µM | 0.122 µM | – | – | – | –
ACAAGCUUAAUCAGUAUGAACAUGAGGAUCACCCAUGUAAAAGGGAAUACUAUUGGGUUUUUUAAAGCUCGUCUUAU [JR_STOV1_Sub017] (Eterna round: R97, puzzle: Sensor, turn-off variant 1) | 0.023 µM | 0.0218 µM | – | – | – | –
ACAAGCUUGUAAUGAUUGAACAUGAGGAUCACCCAUGUAAAUGGAAGAACCAACUUGAUAUGAUUUACUCGUCUUAU [JR_STOV1_Sub011] (Eterna round: R97, puzzle: Sensor, turn-off variant 1) | 0.676 µM | 0.546 µM | – | – | – | –
ACAAGCUUUUUGUUCGUCUUAUAAUAAUAAAUAAAUAUAACAUGAGGAUCACCCAUGUUAAGAAGACGGCCUCAUGU [Sesor Array 21 - Jieux - Sensor v3, turn-off variant 2] (puzzle: Sensor v3, turn-off variant 2) | – | – | – | 0.0822 µM | 0.174 µM | 0.0718 µM
ACAAGCUUUUUGUUCGUCUUAUACACUCCUAAUAAGACAACAUGAGGAUCACCCAUGUAACAAAUAAGAACUCAUGU [Sesor Array 5 - Jieux - Sensor v3, turn-off variant 2] (puzzle: Sensor v3, turn-off variant 2) | – | – | – | 0.075 µM | 0.293 µM | 0.0902 µM
ACAAGCUUUUUGUUUGUCUACAUGAGGAUCACCCAUGUGGGUGUCAGUCAUGCUGGCGUGUGGUGUCGUGGCAGCGC [Sensor V1 S1] (Eterna round: R97, puzzle: Sensor, turn-off variant 1) | 0.978 µM | 1.61 µM | – | – | – | –
ACACUGCGAGGAUAUACAUGAGGAUCACCCAUGUUAAGGAAGUCAAGGUUAAUUUAAGGUAGAAGGCGCUUAUU [JR_Ex3_Sub013] (Eterna round: R97, puzzle: Exclusion 3) | 0.0462 µM | 0.0397 µM | – | – | – | –
ACACUGCGAGGAUAUACAUGAGGAUCACCCAUGUUUCGGUAGUCAAGGUUAAUUUAAGGUAGAAGGCGCGUAUU [JR_Ex3_Sub010] (Eterna round: R97, puzzle: Exclusion 3) | 0.0638 µM | 0.0332 µM | – | – | – | –
ACAGCGUGAGGAUAUACAUGAGGAUCACCCAUGUGUGGCAGGUUAUCCUGUCAUAAGUGUAGAAGGCACGCUGU [Exclusion 3 - Oddities v.6 ( A small slide from ms2 to fmn)] (puzzle: Exclusion 3) | – | – | – | – | 0.0372 µM | –
ACAGCGUGAGGAUAUACAUGAGGAUCACCCAUGUGUGGCAGGUUAUCCUGUCAUGAGUGUAGAAGGCACGCUGU [Exclusion 3 - Oddities v.7 ( A small slide from ms2 to fmn)] (puzzle: Exclusion 3) | – | – | – | – | 0.0262 µM | –
ACAUCGCCAGAAGUAGGUGACAUGAGGAUCACCCAUGUAGGCUAUUUUGCUCGUUUUAUUUCCACCCUAUUUGCUCC [Eternabot (L1) Solution 13] (Eterna round: R97, puzzle: Sensor, turn-off variant 1) | 0.146 µM | 0.19 µM | – | – | – | –
ACAUGACAGCUAGGAUAUAAAUGACAUGAGGAUCACCCAUGUUGUCCCAUGUUGACGAUCACCGAUUAGAAGGAGCCACCCAUG [Ex NG2 #1] (Eterna round: R96, puzzle: Exclusion NG 2) | 0.106 µM | 0.089 µM | 0.11 µM | – | – | –
ACAUGACUGCUAGGAUAUAGAUGACAUGAGGAUCACCCAUGUUAUCCCAUGUUGACGGAAACCGACUAGAAGGAGCAGCAUAUG [Ex NG2 #9] (Eterna round: R96, puzzle: Exclusion NG 2) | 0.118 µM | 0.0453 µM | 0.0435 µM | – | – | –
ACAUGACUGCUAGGAUAUAGAUGACAUGAGGAUCACCCAUGUUGUCCCAUGUUUAUGGAAACGGACUAGAAGGAGCAGCAUAUG [Ex NG2 #12] (Eterna round: R96, puzzle: Exclusion NG 2) | 0.0257 µM | 0.0302 µM | 0.0248 µM | – | – | –
ACAUGAGGAUCACCCAUGUAAACAUAAUGGCUCAUGUAGAGUCAGGAUAUGCGUGGCGAACAACCGCAGAAGGGACAAGACUGG [Deportation 27 - Jieux - Exclusion NG 3] (Eterna round: R96, puzzle: Exclusion NG 3) | 0.0257 µM | 0.029 µM | 0.0204 µM | – | – | –
ACAUGAGGAUCACCCAUGUAAUCAUAAUGGCUGAUGUAGAGUCAGGAUAUGUGUGGCUUUCUAUCGCAGAAGGGACAAGACUGG [Deportation 34 - Jieux - Exclusion NG 3] (Eterna round: R96, puzzle: Exclusion NG 3) | 0.0263 µM | 0.0307 µM | 0.0264 µM | – | – | –
ACAUGAGGAUCACCCAUGUAAUCAUGAUGGCUGAUGUAGAGGUAGGAUAUGAGUGGCUUUCUAUCUCAGAAGGACCAAGACUGG [Deportation 39 - Jieux - Exclusion NG 3] (Eterna round: R96, puzzle: Exclusion NG 3) | 0.029 µM | 0.0273 µM | 0.0216 µM | – | – | –
ACAUGAGGAUCACCCAUGUAAUCAUGAUGGCUGAUGUAGAGUCAGGAUAUGUGUGGCUUUCUAUCGCAGAAGGGACAAGACUGG [Deportation 35 - Jieux - Exclusion NG 3] (Eterna round: R96, puzzle: Exclusion NG 3) | 0.0456 µM | 0.0434 µM | 0.0377 µM | – | – | –
